{
  "source": "paper PMC5916898",
  "about": "“Global profiling of protein–DNA and protein–nucleosome binding affinities using quantitative mass spectrometry”",
  "test_in_all_cases": "competition; 150 mM NaCl, 50 mM Tris pH 8, 0.25% NP-40, 1 mM TCEP; 4 C, 2 h; 100 ug HeLa nuclear lysate; free competitor against 200 nM immobilised SP/KLF wild-type",
  "details_in_all_cases": "protein: extract",
  "key": {"[1]": {"target": "KLF3 (Homo sapiens, UniProt P57682)", "sequence (P57682 whole entry)": "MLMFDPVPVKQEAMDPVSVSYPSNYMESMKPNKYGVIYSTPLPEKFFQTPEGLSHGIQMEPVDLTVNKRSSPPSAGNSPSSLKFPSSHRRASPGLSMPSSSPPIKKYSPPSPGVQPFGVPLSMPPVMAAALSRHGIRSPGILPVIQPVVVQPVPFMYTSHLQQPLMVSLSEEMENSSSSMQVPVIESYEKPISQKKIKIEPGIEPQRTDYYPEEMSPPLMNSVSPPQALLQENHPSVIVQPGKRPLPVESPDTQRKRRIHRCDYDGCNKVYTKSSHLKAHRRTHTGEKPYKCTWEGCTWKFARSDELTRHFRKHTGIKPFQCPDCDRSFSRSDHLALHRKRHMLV"}, "[2]": {"target": "T1, ZNF148 (Homo sapiens, UniProt Q9UQR1)", "T1 sequence": "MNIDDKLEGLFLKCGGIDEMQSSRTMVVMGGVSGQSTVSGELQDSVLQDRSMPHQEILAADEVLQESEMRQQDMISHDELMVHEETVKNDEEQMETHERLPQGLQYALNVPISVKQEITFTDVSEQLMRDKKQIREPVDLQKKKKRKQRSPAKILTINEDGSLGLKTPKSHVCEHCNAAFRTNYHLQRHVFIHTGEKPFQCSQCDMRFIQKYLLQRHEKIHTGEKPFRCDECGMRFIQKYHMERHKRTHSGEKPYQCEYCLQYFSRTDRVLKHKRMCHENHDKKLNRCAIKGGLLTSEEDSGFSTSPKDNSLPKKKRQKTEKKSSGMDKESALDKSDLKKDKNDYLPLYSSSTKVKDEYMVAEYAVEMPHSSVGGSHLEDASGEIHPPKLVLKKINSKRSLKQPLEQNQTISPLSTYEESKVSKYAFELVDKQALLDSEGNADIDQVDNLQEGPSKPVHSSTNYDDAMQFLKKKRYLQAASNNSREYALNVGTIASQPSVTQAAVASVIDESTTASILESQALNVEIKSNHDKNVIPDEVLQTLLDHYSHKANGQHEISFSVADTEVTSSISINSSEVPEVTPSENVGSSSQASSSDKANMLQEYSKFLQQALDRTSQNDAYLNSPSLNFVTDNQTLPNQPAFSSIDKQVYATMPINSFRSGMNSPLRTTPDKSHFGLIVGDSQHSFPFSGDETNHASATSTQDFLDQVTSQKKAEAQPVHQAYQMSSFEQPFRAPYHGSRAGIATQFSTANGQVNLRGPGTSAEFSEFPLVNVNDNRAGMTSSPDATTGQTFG"}, "[3]": {"target": "KLF4 (Homo sapiens, UniProt O43474)", "sequence (O43474 whole entry)": "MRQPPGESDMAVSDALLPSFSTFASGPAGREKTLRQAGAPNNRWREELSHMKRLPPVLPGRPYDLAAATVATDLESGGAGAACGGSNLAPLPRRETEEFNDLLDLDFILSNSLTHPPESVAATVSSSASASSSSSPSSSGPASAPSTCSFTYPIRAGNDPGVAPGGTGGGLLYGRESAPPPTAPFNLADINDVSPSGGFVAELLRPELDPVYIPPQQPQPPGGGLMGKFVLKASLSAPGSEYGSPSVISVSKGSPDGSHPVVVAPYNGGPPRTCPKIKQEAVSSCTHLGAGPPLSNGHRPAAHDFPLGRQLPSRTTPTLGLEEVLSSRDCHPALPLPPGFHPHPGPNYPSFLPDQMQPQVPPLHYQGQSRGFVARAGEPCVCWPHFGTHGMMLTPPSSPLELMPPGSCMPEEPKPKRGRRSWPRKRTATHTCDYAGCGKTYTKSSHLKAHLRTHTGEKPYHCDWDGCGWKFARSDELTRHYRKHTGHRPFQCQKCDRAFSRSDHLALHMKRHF"}, "[4]": {"target": "KLF10 (Homo sapiens, UniProt Q13118)", "sequence (Q13118 whole entry)": "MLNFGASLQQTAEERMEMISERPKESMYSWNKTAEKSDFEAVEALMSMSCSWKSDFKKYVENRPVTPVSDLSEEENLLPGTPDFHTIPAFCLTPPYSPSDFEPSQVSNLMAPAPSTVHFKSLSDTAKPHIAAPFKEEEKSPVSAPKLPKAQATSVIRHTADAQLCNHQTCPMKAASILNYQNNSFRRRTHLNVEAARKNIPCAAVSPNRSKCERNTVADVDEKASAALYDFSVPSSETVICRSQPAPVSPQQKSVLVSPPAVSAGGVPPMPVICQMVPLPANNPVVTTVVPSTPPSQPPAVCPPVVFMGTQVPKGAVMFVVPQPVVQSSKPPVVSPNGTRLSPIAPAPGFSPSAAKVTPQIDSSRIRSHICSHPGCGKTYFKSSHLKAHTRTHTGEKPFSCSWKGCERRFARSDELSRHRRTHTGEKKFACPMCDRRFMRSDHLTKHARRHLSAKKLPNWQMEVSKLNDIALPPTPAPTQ"}, "[5]": {"target": "SP1 (Homo sapiens, UniProt P08047)", "sequence (P08047 whole entry)": "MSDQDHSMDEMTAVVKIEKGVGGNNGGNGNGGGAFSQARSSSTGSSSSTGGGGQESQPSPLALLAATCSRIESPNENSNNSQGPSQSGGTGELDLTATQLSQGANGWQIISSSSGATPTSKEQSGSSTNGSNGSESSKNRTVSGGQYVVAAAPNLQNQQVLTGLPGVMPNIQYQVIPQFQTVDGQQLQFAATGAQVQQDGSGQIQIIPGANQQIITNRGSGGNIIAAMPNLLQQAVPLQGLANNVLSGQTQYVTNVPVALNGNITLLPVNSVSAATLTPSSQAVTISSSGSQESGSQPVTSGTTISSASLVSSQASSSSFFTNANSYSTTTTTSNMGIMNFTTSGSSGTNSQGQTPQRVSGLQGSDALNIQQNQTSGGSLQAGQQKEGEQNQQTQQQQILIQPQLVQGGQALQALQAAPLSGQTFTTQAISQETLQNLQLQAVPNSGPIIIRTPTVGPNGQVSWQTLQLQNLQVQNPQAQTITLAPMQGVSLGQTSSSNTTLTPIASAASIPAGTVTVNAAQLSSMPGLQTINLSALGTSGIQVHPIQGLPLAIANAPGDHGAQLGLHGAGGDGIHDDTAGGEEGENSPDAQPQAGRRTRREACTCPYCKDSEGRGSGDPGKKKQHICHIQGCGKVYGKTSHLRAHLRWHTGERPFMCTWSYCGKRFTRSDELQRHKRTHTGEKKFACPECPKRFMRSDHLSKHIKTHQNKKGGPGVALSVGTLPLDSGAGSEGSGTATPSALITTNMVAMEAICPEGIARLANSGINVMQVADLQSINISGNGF"}, "[6]": {"target": "T2, ZNF281 (Homo sapiens, UniProt Q9Y2X9)", "T2 sequence": "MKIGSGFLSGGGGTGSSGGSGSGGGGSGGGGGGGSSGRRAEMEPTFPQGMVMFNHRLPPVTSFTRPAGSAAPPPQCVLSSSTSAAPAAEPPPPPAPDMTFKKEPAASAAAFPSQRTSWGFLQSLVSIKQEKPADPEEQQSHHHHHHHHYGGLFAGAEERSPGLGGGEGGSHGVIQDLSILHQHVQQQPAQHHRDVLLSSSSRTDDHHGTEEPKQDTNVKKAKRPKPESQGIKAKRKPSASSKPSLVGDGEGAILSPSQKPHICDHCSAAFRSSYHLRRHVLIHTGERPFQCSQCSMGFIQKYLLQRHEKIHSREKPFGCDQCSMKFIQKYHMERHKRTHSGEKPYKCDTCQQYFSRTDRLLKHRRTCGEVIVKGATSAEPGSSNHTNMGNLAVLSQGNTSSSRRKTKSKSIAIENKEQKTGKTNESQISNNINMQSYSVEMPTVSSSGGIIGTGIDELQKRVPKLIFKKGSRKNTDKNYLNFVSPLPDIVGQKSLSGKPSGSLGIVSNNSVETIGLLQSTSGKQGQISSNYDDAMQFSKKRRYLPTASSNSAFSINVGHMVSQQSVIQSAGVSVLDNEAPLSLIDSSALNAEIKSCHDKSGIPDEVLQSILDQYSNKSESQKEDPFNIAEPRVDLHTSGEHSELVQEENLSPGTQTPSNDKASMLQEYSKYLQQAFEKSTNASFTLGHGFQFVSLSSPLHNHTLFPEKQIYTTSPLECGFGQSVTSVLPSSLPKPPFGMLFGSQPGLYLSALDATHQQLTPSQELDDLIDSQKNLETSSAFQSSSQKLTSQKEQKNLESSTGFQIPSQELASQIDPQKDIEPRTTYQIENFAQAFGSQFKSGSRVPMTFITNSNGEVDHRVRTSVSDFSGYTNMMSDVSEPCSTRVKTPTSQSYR"}},
  "data": [
    {"binder": "SP/KLF wild-type (dsDNA) DNA 1: GAGAGCCCCGCCCCCTGGCT DNA 2: AGCCAGGGGGCGGGGCTCTC", "values": [
      {"measurement": "IC50", "setting": "[1]", "value": 112, "unit": "nM"},
      {"measurement": "IC50", "setting": "[2]", "value": 164, "unit": "nM"},
      {"measurement": "IC50", "setting": "[3]", "value": 229, "unit": "nM"},
      {"measurement": "IC50", "setting": "[4]", "value": 111, "unit": "nM"},
      {"measurement": "IC50", "setting": "[5]", "value": 192, "unit": "nM"},
      {"measurement": "IC50", "setting": "[6]", "value": 176, "unit": "nM"}
    ]}
  ]
}
